Experimental data reported in patent US20200371101A1.

Assays:
[1] = target: His-tagged IDO1 human recombinant protein (71182, BPS Biosciences) (human) (UniProt P14902); assay: ELISA: biotin-PEG3 macrocycle on NeutrAvidin plate, His-tagged human IDO1 titrated, AP-conjugated anti-6XHis antibody, fluorescence
[2] = target: His-tagged IDO1 human recombinant protein (71182, BPS Biosciences) (human) (UniProt P14902); assay: cell-based or functional assay
[3] = target: murine IDO1 protein (mouse) (UniProt P28776); assay: ELISA, immobilized macrocycle, mouse IDO1 titrated
Sequence of murine IDO1 protein (mouse) (P28776 2-406 limits assumed): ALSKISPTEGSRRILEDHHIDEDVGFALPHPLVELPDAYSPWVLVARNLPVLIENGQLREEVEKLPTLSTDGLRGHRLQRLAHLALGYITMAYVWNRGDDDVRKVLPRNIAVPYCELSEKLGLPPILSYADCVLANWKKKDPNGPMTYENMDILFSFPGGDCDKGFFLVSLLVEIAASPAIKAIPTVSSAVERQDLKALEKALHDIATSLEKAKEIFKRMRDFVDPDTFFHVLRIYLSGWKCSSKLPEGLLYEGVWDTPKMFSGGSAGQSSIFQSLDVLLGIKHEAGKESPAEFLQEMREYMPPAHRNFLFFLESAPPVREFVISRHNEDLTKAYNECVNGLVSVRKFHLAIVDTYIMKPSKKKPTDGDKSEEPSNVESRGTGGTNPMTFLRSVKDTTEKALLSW

[4] = target: His-tagged IDO1 human recombinant protein (71182, BPS Biosciences) (human) (UniProt P14902); assay: ELISA: biotinylated peptide on NeutrAvidin plate, 6xHis-tagged human IDO1 titrated
[5] = target: His-tagged IDO1 human recombinant protein (71182, BPS Biosciences) (human) (UniProt P14902); assay: sandwich ELISA: biotinylated macrocycle on NeutrAvidin plate, His-tagged IDO1 titrated, anti-6XHis-AP detection
[6] = target: His-tagged IDO1 human recombinant protein (71182, BPS Biosciences) (human) (UniProt P14902); assay: ELISA, immobilized macrocycle, human IDO1 titrated
[7] = target: His-tagged IDO1 human recombinant protein (71182, BPS Biosciences) (human) (UniProt P14902); assay: binding analysis, method not named
[8] = target: His-tagged IDO1 human recombinant protein (71182, BPS Biosciences) (human) (UniProt P14902); assay: sandwich ELISA: 200 nM biotinylated macrocycle immobilized on NeutrAvidin plate, His-tagged IDO1 titrated, anti-6XHis-AP detection

Sequence of His-tagged IDO1 human recombinant protein (71182, BPS Biosciences) (human) (P14902 2-403 limits assumed): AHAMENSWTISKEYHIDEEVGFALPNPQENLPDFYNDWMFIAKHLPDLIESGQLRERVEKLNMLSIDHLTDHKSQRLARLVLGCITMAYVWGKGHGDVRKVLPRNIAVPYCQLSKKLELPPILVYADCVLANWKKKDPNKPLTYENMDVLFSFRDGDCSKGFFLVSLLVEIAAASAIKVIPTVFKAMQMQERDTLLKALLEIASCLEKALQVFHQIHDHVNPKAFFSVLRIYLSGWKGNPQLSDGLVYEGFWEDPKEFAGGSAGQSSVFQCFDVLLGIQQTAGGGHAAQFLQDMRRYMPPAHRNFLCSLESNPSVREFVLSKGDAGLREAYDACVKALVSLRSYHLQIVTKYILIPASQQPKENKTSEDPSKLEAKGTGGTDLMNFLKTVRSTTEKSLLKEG

Work on Biotin-PEG3-Cy(arf(Me-Trp)s) (peptide) yielded an EC50 [1] of 0.079 µM.
Substance Biotin-PEG3-Cy(frf(Me-Trp)) (peptide) has an EC50 [1] of 0.012 µM.
Work on Biotin-PEG3-Cy(frf(Me-Trp)a) (peptide) yielded an EC50 [1] of 0.057 µM.
In the case of “Biotin-PEG3-Cy(lf(Me-Trp)(F-Phe)) (peptide)”, the EC50 [1] is reported as 0.039 µM.
Biotin-PEG3-Cy(saww(F-Phe)) (peptide) was tested, and the EC50 [1] was 0.042 µM.
For Biotin-PEG3-Cy(spaw(F-Phe)) (peptide), the EC50 [1] was 0.111 µM.
With Biotin-PEG3-Cy(sww(F-Phe)) (peptide) the EC50 [1] was 0.07 µM.
alf(Me-Trp)(F-Phe) (peptide) gave an EC50 [1] of 0.05 µM.
In the case of apww(F-Phe) (peptide), the EC50 [1] is reported as 0.106 µM.
With biotin-PEG3-Cy(frf(Me-Trp)s) (peptide) the IC50, IDO1 Fluorogenic Inhibitor Screening Assay (enzyme inhibition) [2] was > 40 µM, the EC50 [3] was 0.036 µM and the EC50 [4] was 0.02 µM. For the same substance, the EC50 [5] was 0.02 µM and the EC50 [6] was 0.018 µM.
“biotin-PEG3-Cy(nlf(Me-Trp)(F-Phe)) (peptide)” showed an EC50 [3] of 0.089 µM, an EC50 [5] of 0.02 µM and an EC50 [7] of 0.044 µM. It also gave an EC50 [6] of 0.019 µM.
biotin-PEG3-Cy(nlw(Me-Trp)r) (peptide) showed an EC50 [3] of 0.048 µM, an EC50 [5] of 0.043 µM and an EC50 [6] of 0.051 µM.
Substance biotin-PEG3-Cy(nsfr(Me-Trp)) (peptide) has an EC50 [4] of 0.124 µM and an EC50 [5] of 0.124 µM.
biotin-PEG3-Cy(nsh(F-Phe)r) (peptide) gave an EC50 [5] of 0.068 µM.
For biotin-PEG3-Cy(rys(Me-Trp)r) (peptide), the IC50, IDO1 Fluorogenic Inhibitor Screening Assay (enzyme inhibition) [2] was > 40 µM, the EC50 [3] was 0.017 µM and the EC50 [8] was 0.081 µM. For the same substance, the EC50 [6] was 0.091 µM.
In the case of biotin-PEG3-Cy(spww(F-Phe)) (peptide), the IC50, IDO1 Fluorogenic Inhibitor Screening Assay (enzyme inhibition) [2] is reported as > 40 µM, the EC50 [3] is reported as 0.044 µM and the EC50 [5] is reported as 0.065 µM. The EC50 [6] was 0.085 µM.
For fra(Me-Trp)s (peptide), the EC50 [1] was 0.107 µM.
Substance n-f(Me-Trp)(F-Phe) (peptide) has an EC50 [1] of 0.128 µM.
naf(Me-Trp)(F-Phe) (peptide) gave an EC50 [1] of 0.082 µM.
Substance nla(Me-Trp)(F-Phe) (peptide) has an EC50 [1] of 0.116 µM.
Work on nlf(Me-Trp) (peptide) yielded an EC50 [1] of 0.045 µM.
Work on nlf(Me-Trp)a (peptide) yielded an EC50 [1] of 0.104 µM.
With nlfa(F-Phe) (peptide) the EC50 [1] was 0.069 µM.
With pww(F-Phe) (peptide) the EC50 [1] was 0.104 µM.
With spww (peptide) the EC50 [1] was 0.144 µM.
spwwa (peptide) showed an EC50 [1] of 0.111 µM.
